The data set concerns K562 CRISPRi cells. Kind of data set: Constant region variant library pooled growth screen, K562. Type of data set: cell-based, human. Conditions: sgRNA constant region variants, un-modified constant region cr995. An outline of the steps:
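Relative activity expresses each targeting sequence:constant region pair's phenotype over that of the unmodified constant region. Pooled growth screen ran in K562 CRISPRi cells in duplicate spinner-flask replicates, with puromycin selection and 4–8 days' growth at >2000× coverage; library paired variants with 36 targeting sequences.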

The mark [1] stands for this setting: activity relative to the original.
Where [2] appears, read: relative to the original, CRISPRi.

Residue numbers refer to the chain shown, from its start.

B1: cr598 (nucleic acid)
guide: GTTTAAGAGCTAAGCTGGAAACAGCATAGCAAGCTTAAATAAGGCTAGTCCGTTATCAACTGGAAACAGTGGCACCGAGTCGGTGCT
modifications: listed as DNA, chemistry not fully specified
In turn, B1 yielded a Mean relative activity under setting [1] of 0.5934.

B2: cr342 (nucleic acid)
guide: B1 guide with C34T, C57T, G62T, A65T, C67A
modifications: listed as DNA, chemistry not fully specified
As for B2, the Mean relative activity under setting [1] was 0.5422.

B3: cr098 (nucleic acid)
guide: B1 guide with A6C, A8T, C34T, G62T, C67A
modifications: listed as DNA, chemistry not fully specified
Turning to B3, the Mean relative activity under setting [1] was 0.534.

B4: cr254 (nucleic acid)
guide: B1 guide with C34T, G62T, C67A, C76A, G77C, C81G, G82T
modifications: listed as DNA, chemistry not fully specified
For B4, the Mean relative activity under setting [1] worked out at 0.5503.

B5: cr166 (nucleic acid)
guide: B1 guide with G62T, C67A, C73T, G85A
modifications: listed as DNA, chemistry not fully specified
In the case of B5, the Mean relative activity under setting [2] is 0.5245.

B6: cr803 (nucleic acid)
guide: B1 guide with C34T, C45A, G48T, G62T, A65G, C67A
modifications: listed as DNA, chemistry not fully specified
Under setting [1], B6 showed a Mean relative activity of 0.578.

B7: cr440 (nucleic acid)
guide: B1 guide with C34T, G62T, C67A, G69C
modifications: listed as DNA, chemistry not fully specified
The molecule B7 registered a Mean relative activity under setting [1] of 0.5863.

B8: cr427 (nucleic acid)
guide: B1 guide with C34T, C57A, G62T, C67A, G79A
modifications: listed as DNA, chemistry not fully specified
For B8, the Mean relative activity under setting [1] is 0.5383.

B9: cr265 (nucleic acid)
guide: B1 guide with C34T, C45T, G62T, C67A
modifications: listed as DNA, chemistry not fully specified
Regarding B9, the Mean relative activity under setting [2] is 0.5157.

B10: cr940 (nucleic acid)
guide: B1 guide with T61G, G62T, C67A, A68C
modifications: listed as DNA, chemistry not fully specified
The molecule B10 came in with a Mean relative activity under setting [1] of 0.5399.

B11: cr827 (nucleic acid)
guide: B1 guide with C34T, C45A, G48T, G62T, C67A, A74T, C75A, G83T, T84A
modifications: listed as DNA, chemistry not fully specified
Molecule B11 gave a Mean relative activity under setting [1] of 0.5792.

B12: cr927 (nucleic acid)
guide: B1 guide with C34T, G62T, C67A, A74G, G77C, C81G, T84C
modifications: listed as DNA, chemistry not fully specified
Take B12: the Mean relative activity under setting [1] is 0.5921.

B13: cr511 (nucleic acid)
guide: B1 guide with A28T, A31C, C34T, G62T, C67A, A78C
modifications: listed as DNA, chemistry not fully specified
Regarding B13, the Mean relative activity under setting [2] worked out at 0.5247.

B14: cr300 (nucleic acid)
guide: B1 guide with C34T, C45A, G48T, G62T, C67A, G72A, C73T, G85A, C86T
modifications: listed as DNA, chemistry not fully specified
Under setting [1], B14 gave a Mean relative activity of 0.592.

B15: cr223 (nucleic acid)
guide: B1 guide with C34T, C45G, G48C, G62T, C67A
modifications: listed as DNA, chemistry not fully specified
Take B15: the Mean relative activity under setting [1] was determined as 0.5667.

B16: cr456 (nucleic acid)
guide: B1 guide with G33A, C34T, T46A, G62T, C67A
modifications: listed as DNA, chemistry not fully specified
Regarding B16, the Mean relative activity under setting [1] came to 0.5821.

B17: cr548 (nucleic acid)
guide: B1 guide with C34T, G62T, C67A, C75A
modifications: listed as DNA, chemistry not fully specified
For the molecule B17, under setting [2], the Mean relative activity is listed as 0.513.

B18: cr846 (nucleic acid)
guide: B1 guide with A28G, C34T, G62T, G63A, C67A, A78G
modifications: listed as DNA, chemistry not fully specified
As for B18, under setting [1], the Mean relative activity was 0.5528.

B19: cr837 (nucleic acid)
guide: B1 guide with C34T, G62T, C67A, G77C
modifications: listed as DNA, chemistry not fully specified
The molecule B19 returned a Mean relative activity under setting [1] of 0.5543.

B20: cr814 (nucleic acid)
guide: B1 guide with C34T, G62T, C67A, C73G, A74T, T84A, G85C
modifications: listed as DNA, chemistry not fully specified
Under setting [1], B20 yielded a Mean relative activity of 1.048.

B21: cr959 (nucleic acid)
guide: B1 guide with C34T, C60T, G62C, C67T, G69C
modifications: listed as DNA, chemistry not fully specified
B21 yielded a Mean relative activity under setting [1] of 0.5251.

B22: cr726 (nucleic acid)
guide: B1 guide with A32T, C34T, G52A, A55C, G62T, C67A
modifications: listed as DNA, chemistry not fully specified
B22: the Mean relative activity under setting [1] turned out to be 0.5903.

B23: cr976 (nucleic acid)
guide: B1 guide with C34T, C45G, G48C, G62T, A65G, C67A
modifications: listed as DNA, chemistry not fully specified
The molecule B23 gave a Mean relative activity under setting [1] of 0.5594.

B24: cr989 (nucleic acid)
guide: B1 guide with C34T, G62T, C67A, G69A
modifications: listed as DNA, chemistry not fully specified
Turning to B24, under setting [1], the Mean relative activity is on record as 0.5623.

B25: cr134 (nucleic acid)
guide: B1 guide with C34T, C57T, G62T, A66C, C67A
modifications: listed as DNA, chemistry not fully specified
With B25, the Mean relative activity under setting [1] was determined as 0.5692.

B26: cr330 (nucleic acid)
guide: B1 guide with C34T, C45A, G48T, G62T, C67A, G72C, C86G
modifications: listed as DNA, chemistry not fully specified
Consider B26, for which the Mean relative activity under setting [1] was found to be 0.5762.

B27: cr651 (nucleic acid)
guide: B1 guide with C34T, A55T, T56G, G62T, C67A, G71A
modifications: listed as DNA, chemistry not fully specified
As to B27, under setting [1], the Mean relative activity turned out to be 0.5637.

B28: cr724 (nucleic acid)
guide: B1 guide with C34T, A58G, G62T, C67A
modifications: listed as DNA, chemistry not fully specified
Regarding B28, under setting [2], the Mean relative activity turned out to be 0.5177.

B29: cr282 (nucleic acid)
guide: B1 guide with C34T, G62T, C67A, G72C, C73A, A74C, T84G, G85T, C86G
modifications: listed as DNA, chemistry not fully specified
Under setting [1], B29 gave a Mean relative activity of 1.049.

B30: cr491 (nucleic acid)
guide: B1 guide with C34T, C45A, G48T, C60G, G62T, C67A, G69C
modifications: listed as DNA, chemistry not fully specified
Regarding B30, the Mean relative activity under setting [1] is given as 0.5775.

B31: cr430 (nucleic acid)
guide: B1 guide with C34T, G44A, C50T, C60A, G62T, C67A, G69T, C76A, G82T
modifications: listed as DNA, chemistry not fully specified
With B31, the Mean relative activity under setting [1] came out at 0.5328.

B32: cr072 (nucleic acid)
guide: B1 guide with T3C, A8T, C34T, G62T, C67A
modifications: listed as DNA, chemistry not fully specified
B32 had a Mean relative activity under setting [2] of 0.5236.

B33: cr842 (nucleic acid)
guide: B1 guide with A59G, G62T, C67A, T70C
modifications: listed as DNA, chemistry not fully specified
B33 yielded a Mean relative activity under setting [1] of 0.5544.

B34: cr531 (nucleic acid)
guide: B1 guide with A19T, C34T, G62T, C67A
modifications: listed as DNA, chemistry not fully specified
On to B34, for which, under setting [1], the Mean relative activity turned out to be 1.048.

B35: cr150 (nucleic acid)
guide: B1 guide with C34T, G62T, C67A, C75G
modifications: listed as DNA, chemistry not fully specified
On to B35, for which the Mean relative activity under setting [2] came out at 0.523.

B36: cr338 (nucleic acid)
guide: B1 guide with C34T, T35C, T46G, G62T, C67A
modifications: listed as DNA, chemistry not fully specified
Molecule B36 displayed a Mean relative activity under setting [1] of 0.5831.

B37: cr500 (nucleic acid)
guide: B1 guide with C34T, G62T, C67A, T80G
modifications: listed as DNA, chemistry not fully specified
Under setting [1], B37 came in with a Mean relative activity of 0.5743.

B38: cr957 (nucleic acid)
guide: B1 guide with C34T, C45G, G48C, G62T, C67A, G72C, C86G
modifications: listed as DNA, chemistry not fully specified
As for B38, under setting [1], the Mean relative activity was 0.5576.

B39: cr533 (nucleic acid)
guide: B1 guide with C34T, A59G, G62T, C67A, T70C, A74G, C75G, G83C, T84C
modifications: listed as DNA, chemistry not fully specified
Consider B39, for which the Mean relative activity under setting [1] came to 0.5558.
